Numbering of substitutions follows the chain as printed.
B1: P54AR4-37v2: EGFR-binding FN3 domain, SEQ ID NO: 29; stabilized P54AR4-37 (protein)
chain: LPAPKNLVVSEVTEDSLRLSWTWPYADLDSFLIQYQESEKVGEAINLTVPGSERSYDLTGLKPGTEYTVSIYGVHNVYKDTNMRGLPLSAEFTT
modifications: EGFR binding FN3 domain
B2: P54AR4-37: EGFR-binding FN3 domain, printed SEQ ID NO: 22 (possibly P54AR4-73) (protein)
chain: B1 chain
modifications: EGFR binding FN3 domain
B3: P54AR4-83: EGFR-binding FN3 domain, SEQ ID NO: 25 (protein)
chain: B1 chain with T22D, W23D, Y25W, D27F, L28Y, D29E
modifications: EGFR binding FN3 domain
B4: P54CR4-31: EGFR-binding FN3 domain, SEQ ID NO: 26 (protein)
chain: LPAPKNLVVSEVTEDSLRLSWTAPDAAFDSFLIQYQESEKVGEAINLTVPGSERSYDLTGLKPGTEYTVSIYGVLGSYVFEHDVMLPLSAEFTT
modifications: EGFR binding FN3 domain
B5: P54CR4-31v2: EGFR-binding FN3 domain, SEQ ID NO: 28; stabilized P54CR4-31 (protein)
chain: B4 chain with L17A, N46V, E91I
modifications: EGFR binding FN3 domain
B6: ECB18: bispecific SEQ ID NO: 118: P54AR4-83v2, (AP)5, P114AR5P74-A5, linked to albumin binding domain (protein)
chain: MLPAPKNLVVSEVTEDSARLSWDDPWAFYESFLIQYQESEKVGEAIVLTVPGSERSYDLTGLKPGTEYTVSIYGVHNVYKDTNMRGLPLSAIFTTAPAPAPAPAPLPAPKNLVVSRVTEDSARLSWTAPDAAFDSFWIRYDEVVVGGEAIVLTVPGSERSYDLTGLKPGTEYYVNILGVKGGSISVPLSAIFTTAPAPAPAPAPLAEAKVLANRELDKYGVSDYYKNLINNAKTVEGVKALLDEILAALP
modifications: Bispecific EGFR/c-Met binding molecule
B7: ECB28: bispecific SEQ ID NO: 119: P53A1R5-17v2, (AP)5, P114AR5P74-A5, linked to albumin binding domain (protein)
chain: B6 chain with D23A, W26H, A27G, E30D
modifications: Bispecific EGFR/c-Met binding molecule
B8: ECB97: bispecific SEQ ID NO: 64: P54AR4-83v22, (AP)5, P114AR7P95-C5v2 (protein)
chain: MLPAPKNLVVSEVTEDSARLSWDDPWAFYESFLIQYQESEKVGEAIVLTVPGSERSYDLTGLKPGTEYTVSIYGVHNVYKDTNIRGLPLSAIFTTAPAPAPAPAPLPAPKNLVVSRVTEDSARLSWTAPDAAFDSFWIRYFEFLGSGEAIVLTVPGSERSYDLTGLKPGTEYVVNILSVKGGSISPPLSAIFTT
modifications: bispecific EGFR/cMet binding molecule
B9: ECB106: bispecific SEQ ID NO: 65: P54AR4-83v23, (AP)5, P114AR7P94-A3v22 (protein)
chain: B8 chain with W26H, S178G, S183K
modifications: bispecific EGFR/cMet binding molecule
B10: ECB107: bispecific SEQ ID NO: 66: P54AR4-83v23, (AP)5, P114AR9P121-A6v2 (protein)
chain: B8 chain with W26H, L144V, S178G
modifications: bispecific EGFR/cMet binding molecule
B11: ECB109: bispecific SEQ ID NO: 68: P54AR4-83v23, (AP)5, P114AR7P95-C5v2 (protein)
chain: B8 chain with W26H
modifications: bispecific EGFR/cMet binding molecule
B12: ECB108: bispecific SEQ ID NO: 67: P54AR4-83v23, (AP)5, P114AR9P122-A7v2 (protein)
chain: B8 chain with W26H, L144V, G145S, S146K, E148D, S178G
modifications: bispecific EGFR/cMet binding molecule
B13: ECB39: bispecific SEQ ID NO: 121: P53A1R5-17v2, (AP)5, P114AR7P94-A3, linked to albumin binding domain (protein)
chain: MLPAPKNLVVSEVTEDSARLSWADPHGFYDSFLIQYQESEKVGEAIVLTVPGSERSYDLTGLKPGTEYTVSIYGVHNVYKDTNMRGLPLSAIFTTAPAPAPAPAPLPAPKNLVVSRVTEDSARLSWTAPDAAFDSFWIRYFEFLGSGEAIVLTVPGSERSYDLTGLKPGTEYVVNIMGVKGGKISPPLSAIFTTAPAPAPAPAPLAEAKVLANRELDKYGVSDYYKNLINNAKTVEGVKALLDEILAALP
modifications: Bispecific EGFR/c-Met binding molecule

How the values were obtained:
[1] = system: H292-HGF human lung cancer xenograft; experiment: Efficacy of bispecific molecule and other inhibitors of EGFR and c-Met, subcutaneous H292-HGF human lung cancer xenograft; assay type: in vivo, SCID/Beige mice; conditions: mouse, in vivo
Experimental: The H292-HGF cells were maintained in vitro in RPMI1640 medium supplemented with fetal bovine serum (10% v/v), and L-glutamine (2 mM) at 37° C. in an atmosphere of 5% CO2 in air. The cells were routinely subcultured twice weekly by trypsin-EDTA treatment. The cells growing in an exponential growth phase were harvested and counted for tumor inoculation.
Each mouse was inoculated subcutaneously at the right flank region with H292-HGF tumor cells (2×10^6) in 0.1 ml of PBS with cultrex (1:1) for tumor development. The treatments were started when the mean tumor size reached 139 mm3. […] The date of tumor cell inoculation was denoted as day 0.
Before commencement of treatment, all animals were weighed, and the tumor volumes were measured. Since the tumor volume can affect the effectiveness of any given treatment, mice were assigned into groups using randomized block design based upon their tumor volumes. […] The randomized block design was used to assign experimental animals to groups. First, the experimental animals were divided into homogeneous blocks according to their initial tumor volume. Secondly, within each block, randomization of experimental animals to treatments was conducted.
The endpoint was whether tumor growth can be delayed or tumor bearing mice can be cured. Tumor size was measured twice weekly in two dimensions using a caliper, and the volume was expressed in mm3 using the formula: V=0.5 a×b2 where a and b are the long and short diameters of the tumor, respectively. The tumor size was then used for calculations of both T-C and T/C values. T-C was calculated with T as the time (in days) required for the mean tumor size of the treatment group to reach 1000 mm3, and C was the time (in days) for the mean tumor size of the control group to reach the same size. The T/C value (in percent) was an indication of antitumor efficacy; T and C were the mean tumor volume of the treated and control groups, respectively, on a given day. Complete tumor regression (CR) is defined as tumors that are reduced to below the limit of palpation (62.5 mm3). Partial tumor regression (PR) is defined as tumors that are reduced from initial tumor volume. A minimum duration of CR or PR in 3 or more successive tumor measurements is required for a CP or PR to be considered durable.
Statistical analyses of difference in tumor volume among the groups were evaluated using a one-way ANOVA followed by individual comparisons using Games-Howell (equal variance not assumed). All data were analyzed using SPSS 18.0. p<0.05 was considered to be statistically significant.

[2] = Body weight loss and tolerability in the H292-HGF xenograft study; conditions: mouse, in vivo
Experimental: At the time of routine monitoring, the animals were checked for any effects of tumor growth and treatments on normal behavior, such as mobility, visual estimation of food and water consumption, body weight gain/loss (body weights were measured twice weekly), eye/hair matting and any other abnormal effect.
Animals for which the body weight loss exceeded 20%, or for which the mean tumor size of the group exceeds 2000 mm^3 were euthanized. The study was terminated after two weeks of observation after the final dose.

[3] = Differential scanning calorimetry in PBS (thermal stability); assay type: physicochemical; conditions: DSC in PBS, EGFR-binding FN3 domains
Description: A subset of the EGFR binding FN3 domains was engineered to increase the conformational stability of each molecule. […] The new mutants, P54AR5-83v2, P54CR431-v2, and P54AR4-37v2 were expressed and purified as described above. Differential scanning calorimetry in PBS was used to assess the stability of each mutant in order to compare it to that of the corresponding parent molecule.
Differential scanning calorimetry in PBS was used to assess the stability of each FN3 domain.

[4] = system: NCI-H292 cells expressing human HGF; experiment: Tumor efficacy study with four bispecific EGFR/c-Met molecules, H292-HGF xenografts; assay type: in vivo, SCID Beige mice; conditions: 25 mg/kg three times per week
Experimental: One week after implantation, mice were stratified into groups with equivalent tumor volumes (mean tumor volume=77.9+/−1.7 mm3). Mice were dosed three times per week with the bispecific molecules and tumor volumes were recorded twice weekly.

H292 cells = experiment: Inhibition of proliferation of HGF-induced H292 cells; assay type: cell-based, human; conditions: bispecific molecules
Description: Inhibition of tumor cell proliferation can be measured using standard methods and methods described herein.
The proliferation assay was completed using different combinations EGFR and c-Met binding FN3 domains either as a mixture or linked in a bispecific format. […] This confirmed that the avidity effect observed at the level of the receptors (FIG. 4 and FIG. 5) translates into an improvement in inhibiting cell signaling (Table 12) and cell proliferation (Table 13).
Inhibition of human tumor cell growth was assessed in standard attachment culture as described in Examples 3 or 6, or in low attachment conditions.

| Molecule | Tm [3] | IC50 (H292 cells) | further results |
| --- | --- | --- | --- |
| C[C@@H](Oc1cc(-c2cnn(C3CCNCC3)c2)cnc1N)c1c(Cl)ccc(F)c1Cl [Crizotinib, crizotinib, reference compound] | – | – | antitumor activity (in words) [1]: no antitumor activity; toxicity, body weight loss, tolerability (in words) [2]: More severe body weight loss |
| C#Cc1cccc(Nc2ncnc3cc(OCCOC)c(OCCOC)cc23)c1 [Erlotinib, erlotinib, reference compound] | – | – | toxicity, body weight loss, tolerability (in words) [2]: More severe body weight loss |
| B1 | 64.2 °C | – | – |
| B2 | 45.9 °C | – | – |
| B3 | 50.6 °C | – | – |
| B4 | 60.9 °C | – | – |
| B5 | 78.9 °C | – | – |
| B6 | – | – | tumor growth (tumor growth inhibition, TGI) [4]: reduced tumor growth; tumor growth (tumor growth inhibition, TGI) ([4]; listed as P54AR4-83v2-P114AR5P74-A5): delay in tumor growth |
| B7 | – | – | tumor growth (tumor growth inhibition, TGI) [4]: reduced tumor growth |
| B8 | – | 31 nM | – |
| B9 | – | 484 nM | – |
| B10 | – | 2640 nM | – |
| B11 | – | 574 nM | – |
| B12 | – | 11400 nM | – |
| B13 | – | – | tumor growth (tumor growth inhibition, TGI) [4]: reduced tumor growth; tumor growth (tumor growth inhibition, TGI) ([4]; listed as P53A1R5-17v2-P114AR7P94-A3): showed the most efficacy |

— patent publication US12304939B2, “EGFR and C-met fibronectin type III domain binding molecules” (Janssen Biotech, Inc., priority 2012, dated 2025)
